{"source": "patent US20140302063A1", "about": "(SECRETARY OF STATE FOR HEALTH, published 2014)", "binders": {"B1": {"name": "R2a-B9 (VHH)", "VHH": "QVQLVESGGGLVQPGGSLRLSCAASGSAFSINAMGWYRQAPGEEREFVAAITAGGNTYYADSAKARFTISRDNAKNMLYLQMNSLKPEDTAMYYCAATKAFGIATITADYELWGQGTQVTVSS"}, "B2": {"name": "R2a-G9 (VHH)", "VHH": "QVQLVESGGGLVQPGGSLRLSCAASDNIFSFYTMGWYRQSPGKERELVAVIGNGGNTNYADSVKGRFTISRDNGKNKAHLQMNSLKPEDTAVYYCKASGPGGVEVWGQGTQVTVSS"}, "B3": {"name": "R2b-E8 (VHH)", "VHH": "QVQLVESGGGLVQPGGSLRLSCAASGSFFSRYRMGWYRQAPGEQRELVAGITYDDSTNYAGSVKGRFTISRDNAKNTVHLQMNSLKPEDTAVYYCNLNPPGNLYWGQGTQVTVSS"}, "B4": {"name": "R2a-G8 (VHH)", "VHH": "QLQLAESGGGLVQAGGSLRLSCAASGSTLNNNAIGWFRQAPGKEREGVSCMNSRDGTTNYADSVKGRFTISRDVAKNTVYLQMNSLKPEDTAVYFCAVKGFAPFLIGCPWGKAEYDYWGQGTQVTVSS"}, "B5": {"name": "R2a-E8 (VHH)", "VHH": "QLQLVESGGGLVQPGGSLRLSCTASGDIFVMYMIDWYRQAPGKQRELVASIDGRGTPMYADSVKGRFTISRDNAKNTVYLQMNSLKPEDTAVYSCHAKSPLVDNEYWGQGTQVTVSS"}, "B6": {"name": "R1a-F5 (VHH)", "VHH": "QLQLVESGGGLVQVGGSLRLSCAASGFPFDGYAIAWFRQAPGKEREGVSCRASDGNTYYAESLKGRLTMSTDNAKNTVYLQMNSLKPEDTAVYYCAAASWVASLWSPSEYDYWGQGTQVTVSS"}, "B7": {"name": "R2a-F9 (VHH)", "VHH": "QVQLVESGGGLVQPGGSLRLSCSASGSISSIVTMGWYRQAPGKERELVAVIGNYGNTNYADSVKGRFTVSRDNAKNTVYLQMNSLNVEDTAMYVCKFSSTVAPHEYWGQGTQVTVSS"}, "B8": {"name": "R1a-H6 (VHH)", "VHH": "QVQLVESGGGLVQAGDSLRLSCTASVLTFSLYRVGWFRQAPGKEREFVAAIDWGDGPTTYADSVKGRFTISRDNAERTAYLQINSLKPEDTAVYYCGAGNTGSSDRSSSYVHWGQGTQVTVSS"}, "B9": {"name": "R1a-E5 (VHH)", "VHH": "QLQLVESGGGLVQPGGSLRLSCTASGFSLDNYAIGWFRRAPGEEREGVSFITSTSAVTKYADSVKGRFTISRDNAKNTVYLQMTSLKPEDTAVYYCAGTRWVPTMKADEYNYWGQGTQVTVSS"}, "B10": {"name": "R1a-G5 (VHH)", "VHH": "QLQLVESGGGLVQPGGSLRLSCAASGSISRIVTMGWYRQASGKERELVAVIGNYGNTNYADSVKGRFTVSRDNAKDTAYLQMNGLNVEDTAIYYCKTSTTTPPYEYWGQGTQVTVSS"}, "B11": {"name": "R1a-F4 (VHH)", "VHH": "B10 VHH with L2V, A40G, S41P, G84N, I92M, T97C, Y104H, Y106F"}, "B12": {"name": "R1a-C5 (VHH)", "VHH": "QVQLVESGGGLVQPGGSLRLSCAASNDIFSFYTMGWYLQAIGKQREPVAVIGNGGNTNYAESVKGRFTISRDGAKNTAYLQMNSLKPEDTAVYYCMASGPGGLNVWGQGTQVTVSS"}, "B13": {"name": "R2b-D8 (VHH)", "VHH": "QVQLVESGGGLVQPGGSLRLSCAASGFTFSWYDVGWYRRAPGKERELVADIASTRGTTNYADSVKGRFTISRDNAKNSVYLQMNSLKPEDTAVYYCNTRRDWRDYWGQGIQVTVSS"}, "B14": {"name": "R2b-D9 (VHH)", "VHH": "QVQLVESGGGLVQPGGSLRLSCLASGSAFSLYTMGWYRQAPGNQRELVAAITSGESTNYADSVKGRFTISRDNAKNTVYLQMNSLKPEDTAVYYCNADPLSTGWGQYSYWGQGTQVTVSS"}, "B15": {"name": "R1a-A5 (VHH)", "VHH": "QVQLVESGGGLVQPGGSLRLSCSASGSAVLFSTYPMSWYRQAPGKQRELVAAVTTDGSTSYADYAKGRFTISRDNAKNTVYLQMNSLKPEDTAVYYCNARDGFFNRYDYWGQGTQVTVSS"}, "B16": {"name": "R1a-B6 (VHH)", "VHH": "QVQLVESGGGLVQPGGSLRLSCAASGSFFSRYRMGWYRQAPGEQRELVASIAYDGSTSYADPVKGRFTISRDNANTVHLQMYSLKPDDTAVYYCNLDPPGILYWGQGTQVTVSS"}, "B17": {"name": "R1a-G6 (VHH)", "VHH": "QVQLVESGGGLVQSGGSLRLSCAASGSMSRIITMGWYRQAPGMERELVAVIGNNDNTVYGDSVQGRFTVSRDNAKNTAYLQMNSLNAEDTAMYYCKISTLTPPHEYWGQGTQVTVSS"}, "B18": {"name": "R1a-E6 (VHH)", "VHH": "QVQLVESGGGLVQPGGSLRLSCAASGFTLGAYAIAWFRQAPGKEREGVSCISPSDSFTEYGDSVKGRFTVSRDNAKNTVYLQMNSLQPEDTAVYYCAADPVCTAGWYRPSRFDLWGQGTQVTVSS"}, "B19": {"name": "R2a-H9 (VHH)", "VHH": "QVQLVESGGGLVQPGGSLRLSCAASTNIASFYTMGWYRQTPGQQRDVVAVIGNGGNTNYADSVKGRFTISRDGAKNTAHLQMNSLKPEDTDVYYCKASGPGGVILWGQGTQVTVSS"}}, "key": {"[1]": {"target": "full length recombinant H1 residues 18-530 derived from A/California/06/09 (Influenza A virus A/California/06/09 (H1N1))", "test": "SPR, single cycle kinetics, HA immobilised"}, "[2]": {"target": "T1, recombinant H2 A/Japan/305/1957 (H2N2) (Influenza A virus A/Japan/305/1957 …, UniProt P03451 16-525)", "test": "SPR, single cycle kinetics"}, "[3]": {"target": "Recombinant haemagglutinin HA1 domain (18-344) (A/California/06/09) H1N1 (Influenza A virus A/California/06/09 (H1N1))", "test": "SPR, single cycle kinetics, HA1 domain immobilised"}, "[4]": {"target": "recombinant H9 A/HongKong/1073/99 (H9N2) (Influenza A virus A/HongKong/1073/99 (H9N2))", "test": "SPR, single cycle kinetics, HA immobilised"}, "[5]": {"target": "recombinant H5 A/Vietnam/1203/04 (H5N1) (Influenza A virus A/Vietnam/1203/04 (H5N1))", "test": "SPR, single cycle kinetics, HA immobilised"}, "[6]": {"target": "T1, recombinant H2 A/Japan/305/1957 (H2N2)", "test": "SPR, single cycle kinetics, HA immobilised"}}, "note": "Residue numbers refer to the chain shown, from its start."}
{"binder": "B1", "values": [{"measurement": "Kd", "setting": "[1]", "result": 0.2, "unit": "nM"}, {"measurement": "binding result", "setting": "[2]", "result": "no binding (tested: 100 nM)"}]}
{"binder": "B2", "values": [{"measurement": "Kd", "setting": "[1]", "result": 62, "unit": "nM"}, {"measurement": "Kd", "setting": "[3]", "result": 69, "unit": "nM"}, {"measurement": "binding result", "setting": "[2]", "result": "no binding (tested: 100 nM)"}]}
{"binder": "B3", "values": [{"measurement": "Kd", "setting": "[4]", "result": 87, "unit": "nM"}, {"measurement": "Kd", "setting": "[1]", "result": 8.2, "unit": "nM"}, {"measurement": "Kd", "setting": "[5]", "result": 3.6, "unit": "nM"}, {"measurement": "binding result", "setting": "[2]", "result": "no binding (tested: 100 nM)"}]}
{"binder": "B4", "values": [{"measurement": "Kd", "setting": "[1]", "result": 3.1, "unit": "nM"}, {"measurement": "Kd", "setting": "[5]", "result": 9, "unit": "nM"}, {"measurement": "Kd", "setting": "[6]", "result": 39, "unit": "nM"}, {"measurement": "Kd", "setting": "[3]", "result": 7.7, "unit": "nM"}]}
{"binder": "B5", "values": [{"measurement": "Kd", "setting": "[1]", "result": 0.8, "unit": "nM"}, {"measurement": "Kd", "setting": "[6]", "result": 34, "unit": "nM"}]}
{"binder": "B6", "values": [{"measurement": "Kd", "setting": "[1]", "result": 9.2, "unit": "nM"}, {"measurement": "Kd", "setting": "[3]", "result": 6.1, "unit": "nM"}, {"measurement": "binding result", "setting": "[2]", "result": "no binding (tested: 100 nM)"}]}
{"binder": "B7", "values": [{"measurement": "Kd", "setting": "[1]", "result": 60, "unit": "nM"}, {"measurement": "Kd", "setting": "[3]", "result": 79, "unit": "nM"}, {"measurement": "binding result", "setting": "[2]", "result": "no binding (tested: 100 nM)"}]}
{"binder": "B8", "values": [{"measurement": "Kd", "setting": "[5]", "result": 241, "unit": "nM"}, {"measurement": "binding result", "setting": "[2]", "result": "no binding (tested: 100 nM)"}]}
{"binder": "B9", "values": [{"measurement": "Kd", "setting": "[1]", "result": 0.6, "unit": "nM"}, {"measurement": "binding result", "setting": "[2]", "result": "no binding (tested: 100 nM)"}]}
{"binder": "B10", "values": [{"measurement": "Kd", "setting": "[1]", "result": 24, "unit": "nM"}, {"measurement": "Kd", "setting": "[3]", "result": 26, "unit": "nM"}, {"measurement": "binding result", "setting": "[2]", "result": "no binding (tested: 100 nM)"}]}
{"binder": "B11", "values": [{"measurement": "Kd", "setting": "[1]", "result": 7.3, "unit": "nM"}, {"measurement": "Kd", "setting": "[3]", "result": 4.7, "unit": "nM"}, {"measurement": "binding result", "setting": "[2]", "result": "no binding (tested: 100 nM)"}]}
{"binder": "B12", "values": [{"measurement": "Kd", "setting": "[4]", "result": 22, "unit": "nM"}, {"measurement": "Kd", "setting": "[1]", "result": 1.9, "unit": "nM"}, {"measurement": "Kd", "setting": "[5]", "result": 2.7, "unit": "nM"}, {"measurement": "Kd", "setting": "[6]", "result": 67, "unit": "nM"}, {"measurement": "Kd", "setting": "[3]", "result": 734, "unit": "nM"}]}
{"binder": "B13", "values": [{"measurement": "binding result", "setting": "[2]", "result": "no binding (tested: 100 nM)"}]}
{"binder": "B14", "values": [{"measurement": "Kd", "setting": "[4]", "result": 59, "unit": "nM"}, {"measurement": "Kd", "setting": "[1]", "result": 0.4, "unit": "nM"}, {"measurement": "Kd", "setting": "[5]", "result": 1.6, "unit": "nM"}, {"measurement": "binding result", "setting": "[2]", "result": "no binding (tested: 100 nM)"}]}
{"binder": "B15", "values": [{"measurement": "Kd", "setting": "[1]", "result": 3.3, "unit": "nM"}, {"measurement": "Kd", "setting": "[5]", "result": 0.7, "unit": "nM"}, {"measurement": "Kd", "setting": "[6]", "result": 186, "unit": "nM"}]}
{"binder": "B16", "values": [{"measurement": "Kd", "setting": "[4]", "result": 7.6, "unit": "nM"}, {"measurement": "Kd", "setting": "[1]", "result": 0.7, "unit": "nM"}, {"measurement": "Kd", "setting": "[5]", "result": 1.7, "unit": "nM"}, {"measurement": "Kd", "setting": "[6]", "result": 43, "unit": "nM"}]}
{"binder": "B17", "values": [{"measurement": "Kd", "setting": "[1]", "result": 4.4, "unit": "nM"}, {"measurement": "Kd", "setting": "[3]", "result": 4.6, "unit": "nM"}, {"measurement": "binding result", "setting": "[2]", "result": "no binding (tested: 100 nM)"}]}
{"binder": "B18", "values": [{"measurement": "Kd", "setting": "[1]", "result": 22.8, "unit": "nM"}, {"measurement": "Kd", "setting": "[3]", "result": 36, "unit": "nM"}, {"measurement": "binding result", "setting": "[2]", "result": "no binding (tested: 100 nM)"}]}
{"binder": "B19", "values": [{"measurement": "Kd", "setting": "[1]", "result": 2.8, "unit": "nM"}, {"measurement": "Kd", "setting": "[6]", "result": 40, "unit": "nM"}, {"measurement": "Kd", "setting": "[3]", "result": 4.7, "unit": "nM"}]}
